Among the targets are RPA (human, UniProt P27694;P15927;P35244 1-616;1-270;1-121); RAD51;SWSAP1-SWS1 (human;human, UniProt Q06609;Q6NVH7;Q19AV6 1-339;1-250;1-140, |); RAD51 (human, UniProt Q06609 1-339).
Holding throughout (assay): FRET
Another data set deals with T1, SWSAP1-SWS1 (human, UniProt Q6NVH7;Q19AV6 1-250;1-140).
T1 sequence 1: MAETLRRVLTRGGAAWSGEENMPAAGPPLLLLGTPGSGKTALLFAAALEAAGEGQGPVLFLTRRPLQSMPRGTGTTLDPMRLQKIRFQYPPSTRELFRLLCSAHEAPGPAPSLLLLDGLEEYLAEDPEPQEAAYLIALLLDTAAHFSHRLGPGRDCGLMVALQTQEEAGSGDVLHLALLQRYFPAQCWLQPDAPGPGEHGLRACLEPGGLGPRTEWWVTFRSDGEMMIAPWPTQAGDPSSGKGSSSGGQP
T1 sequence 2: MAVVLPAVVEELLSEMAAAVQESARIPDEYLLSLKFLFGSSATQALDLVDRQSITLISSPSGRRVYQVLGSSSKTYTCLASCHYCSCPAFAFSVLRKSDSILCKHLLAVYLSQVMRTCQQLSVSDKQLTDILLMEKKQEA

Sequence of RAD51;SWSAP1-SWS1 (Q06609 whole entry, one chain of several): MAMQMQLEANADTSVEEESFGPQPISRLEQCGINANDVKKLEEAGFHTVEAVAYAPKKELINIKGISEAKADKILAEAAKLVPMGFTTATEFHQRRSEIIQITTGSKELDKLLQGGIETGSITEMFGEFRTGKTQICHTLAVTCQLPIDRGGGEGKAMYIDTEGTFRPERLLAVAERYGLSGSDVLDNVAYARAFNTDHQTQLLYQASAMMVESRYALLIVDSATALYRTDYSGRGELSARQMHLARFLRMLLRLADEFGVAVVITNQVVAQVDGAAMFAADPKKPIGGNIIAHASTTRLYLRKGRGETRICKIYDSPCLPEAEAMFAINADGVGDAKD
Sequence of RAD51 (Q06609 whole entry): as the sequence (Q06609 whole entry, one chain of several) above
Sequence of RPA (P27694 whole entry, chain 1 of 3): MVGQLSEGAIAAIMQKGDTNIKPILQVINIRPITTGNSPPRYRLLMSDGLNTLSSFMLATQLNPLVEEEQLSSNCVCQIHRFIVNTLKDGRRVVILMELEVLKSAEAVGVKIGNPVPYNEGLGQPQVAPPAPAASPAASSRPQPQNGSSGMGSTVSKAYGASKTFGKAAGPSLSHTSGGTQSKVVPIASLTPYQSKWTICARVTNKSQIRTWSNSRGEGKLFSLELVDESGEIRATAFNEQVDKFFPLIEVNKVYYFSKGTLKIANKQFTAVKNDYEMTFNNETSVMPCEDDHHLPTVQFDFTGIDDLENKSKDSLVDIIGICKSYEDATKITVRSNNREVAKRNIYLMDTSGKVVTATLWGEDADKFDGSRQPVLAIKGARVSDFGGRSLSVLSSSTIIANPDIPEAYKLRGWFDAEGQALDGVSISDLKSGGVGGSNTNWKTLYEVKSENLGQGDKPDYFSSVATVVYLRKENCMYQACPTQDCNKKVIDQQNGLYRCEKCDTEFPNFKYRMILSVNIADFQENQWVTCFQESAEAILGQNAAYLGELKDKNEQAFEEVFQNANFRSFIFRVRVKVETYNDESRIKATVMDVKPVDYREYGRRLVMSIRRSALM
Sequence of RPA (P15927 whole entry, chain 2 of 3): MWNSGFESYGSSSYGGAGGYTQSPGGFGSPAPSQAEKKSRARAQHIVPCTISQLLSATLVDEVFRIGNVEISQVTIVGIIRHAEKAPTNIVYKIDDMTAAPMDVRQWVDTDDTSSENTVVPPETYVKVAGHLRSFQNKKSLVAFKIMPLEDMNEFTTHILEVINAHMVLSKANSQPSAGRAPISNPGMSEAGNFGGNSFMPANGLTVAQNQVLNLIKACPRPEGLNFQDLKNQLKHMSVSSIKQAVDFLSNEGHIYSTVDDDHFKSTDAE
Sequence of RPA (P35244 whole entry, chain 3 of 3): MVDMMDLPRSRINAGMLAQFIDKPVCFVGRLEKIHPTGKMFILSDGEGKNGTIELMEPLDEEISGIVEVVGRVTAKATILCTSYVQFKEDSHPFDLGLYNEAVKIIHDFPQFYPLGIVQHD

B1: Cy3-dT60-Cy5 (ssDNA)
DNA: TTTTTTTTTTTTTTTTTTTTTTTTTTTTTTTTTTTTTTTTTTTTTTTTTTTTTTTTTTTT
As for B1, the binding result is recorded as “no binding” in the data set with SWSAP1-SWS1, “binds” in the data set with RPA, “binds” with RAD51;SWSAP1-SWS1 and “binds” in the data set with RAD51.

These data come from publication PMC11339404.
